Data as given in patent publication US8501695B2, “Tissue kallikrein for the treatment of diseases associated with amyloid protein” (DiaMedica, Inc., priority 2007, dated 2013).

Test system: rat mixed cortical cultures (RMCC)
Assay: Aβ1-42 toxicity in rat mixed cortical cultures, LDH measurement
Format: cell-based
Protocol: Whether pre-treatment with tissue kallikrein protects rat mixed cortical cultures against exposure to human amyloid beta peptide (Aβ1-42) was investigated. Cell death was analyzed by LDH-release, an indication of necrosis, and cell viability was also analyzed by neuronal cell count. First (Study Arm A), tissue kallikrein was added to the cells only prior to the Aβ1-42 insult (at −24 h and at −30 min). Whereas in the second part (Study Arm B), tissue kallikrein was added to the cells prior to (−30 min) and also at +24 h after the Aβ1-42 insult. At the +24 h time point, cell culture media were not changed (tissue kallikrein or corresponding amount of vehicle was added to the wells), whereas at −24 h and −30 min time point cell culture media were changed.
[…] Cell Culture. Mixed cortical cultures were prepared from E18 Wistar rat embryos (National Animal Center, Kuopio, Finland). The cortices were dissected out, and the tissue cut to small pieces. The cells were separated by 15-min incubation with DNase and papain. The cells were collected by centrifugation (1500 rpm, 5 min). The tissue was triturated with a pipette and the cells were plated on poly-L-lysine-coated 48-well plates, 300,000 cells/cm^2, in MEM (2 g/L glucose) supplemented with 2 mM glutamine, 0.1 μg/ml gentamicin, 10% heat-inactivated fetal bovine serum (FBS-HI) and 10% heat-inactivated horse serum (HS-HI). After 3-4 h, the media were changed to MEM (2 g/L glucose) supplemented with 2 mM glutamine, 0.1 μg/ml gentamicin, 5% HS-HI. After three days in vitro, media containing MEM (2 g/L glucose) supplemented with glutamine, gentamicin, and 5% of both sera were changed to the cells. On day 6 in vitro, the unwanted cell division was inhibited by adding cytosine arabinoside (10 μM final concentration) for 24 h. The cultures were refed with MEM (2 g/L glucose) supplemented with glutamine, gentamicin, and 5% HS-HI before experiments.
Aβ1-42 Exposure. Tissue kallikrein (SEQ ID NO:1) was dissolved and further diluted in MEM supplemented with glucose, glutamine, gentamicin, and 5% HS-HI. As a control for total neuronal death, 300 μM N-methyl-D-aspartic acid (NMDA) for 48 h was used, and 10 μM Aβ1-42 for 48 h was used to induce approximately 30-50% cell death. Wells treated with media only served as 0-control. Tissue kallikrein or vehicle was pipetted to the cells −24 h and −30 min before adding 10 μM Aβ1-42 (final concentration). Tissue kallikrein or vehicle was again pipetted to the cells at +24 h after exposure.
LDH Measurement. After 48 h, the culture media of all wells were collected, and possible cell debris was removed by centrifugation (13,000 rpm for 3 min). A 100 μl aliquot was pipetted into a microtiter plate as duplicates, and equal amount of LDH reagent was pipetted to the wells. The absorbance at 340 nm was measured immediately using a 3 min kinetic measurement protocol in Multiskan ELISA reader (Labsystems, Finland). The change in absorbance/min was determined, which was directly proportional to the released LDH. The remaining supernatant (50 μl) was snap-frozen in dry ice for storage.
Data Analysis. The number of wells per compound concentration used was 6 (n=6). Five concentrations of Tissue kallikrein were studied (0.001, 0.01, 0.1, 1, 10 μg/ml) in both study arms. Statistical analysis was performed using StatsDirect statistical software. The values were analyzed by one-way ANOVA followed by Dunnet's test (comparison to the vehicle-treated group). Results are presented as mean±standard deviation (SD) and differences are considered to be statistically significant at the P<0.05 level.

B1: tissue kallikrein: serine protease that cleaves kininogen into kallidin; polypeptide SEQ ID NO:1 (Sus scrofa kallikrein 1), KLK1 from Sigma (protein, listed as Sus scrofa)
chain: MWSLVMRLALSLAGTGAAPPIQSRIIGGRECEKDSHPWQVAIYHYSSFQCGGVLVDPKWVLTAAHCKNDNYQVWLGRHNLFENEVTAQFFGVTADFPHPGFNLSLLKNHTKADGKDYSHDLMLLRLQSPAKITDAVKVLELPTQEPELGSTCQASGWGSIEPGPDDFEFPDEIQCVELTLLQNTFCADAHPDKVTESMLCAGYLPGGKDTCMGDSGGPLICNGMWQGITSWGHTPCGSANKPSIYTKLIFYLDWINDTITENP
modifications: 125I label in one form
In the case of B1, the “LDH release following Aβ1-42 insult” value (10 μg/ml, Study Arms A, B and C (all three treatment arms), FIG. 7) is reported as “statistically significant reduction of LDH release”, the “LDH release following Aβ1-42 insult” value (Study Arm A (-24 h and -30 min), 10 μg/ml, 10 μM Aβ1-42) is reported as “significantly reduced LDH release” and the “LDH release following Aβ1-42 insult” value (Study Arm A (-24 h and -30 min), 0.001, 0.01, 0.1 and 1.0 μg/ml, 10 μM Aβ1-42) is reported as “did not alter LDH release”. For the same molecule, the “LDH release following Aβ1-42 insult” value (Study Arm B (-30 min and +24 h), 1.0 μg/ml) was “reduced LDH release”, the “LDH release following Aβ1-42 insult” value (Study Arm B (-30 min and +24 h), 10 μg/ml) was “statistically significant reduction of LDH release” and the “LDH release following Aβ1-42 insult” value (Study Arm B (-30 min and +24 h), 0.001, 0.01 and 0.1 μg/ml, 10 μM Aβ1-42) was “did not alter LDH release”.
